B1: DNA polymerase eta (Saccharomyces cerevisiae), Q04049 (parent)
chain: MSKFTWKELIQLGSPSKAYESSLACIAHIDMNAFFAQVEQMRCGLSKEDPVVCVQWNSIIAVSYAARKYGISRMDTIQEALKKCSNLIPIHTAVFKKGEDFWQYHDGCGSWVQDPAKQISVEDHKVSLEPYRRESRKALKIFKSACDLVERASIDEVFLDLGRICFNMLMFDNEYELTGDLKLKDALSNIREAFIGGNYDINSHLPLIPEKIKSLKFEGDVFNPEGRDLITDWDDVILALGSQVCKGIRDSIKDILGYTTSCGLSSTKNVCKLASNYKKPDAQTIVKNDCLLDFLDCGKFEITSFWTLGGVLGKELIDVLDLPHENSIKHIRETWPDNAGQLKEFLDAKVKQSDYDRSTSNIDPLKTADLAEKLFKLSRGRYGLPLSSRPVVKSMMSNKNLRGKSCNSIVDCISWLEVFCAELTSRIQDLEQEYNKIVIPRTVSISLKTKSYEVYRKSGPVAYKGINFQSHELLKVGIKFVTDLDIKGKNKSYYPLTKLSMTITNFDIIDLQKTVVDMFGNQVHTFKSSAGKEDEEKTTSSKADEKTPKLECCKYQVTFTDQKALQEHADYHLALKLSEGLNGAEESSKNLSFGEKRLLFSRKRPNSQHTATPQKKQVTSSKNILSFFTRKK

Variants of: B1
Conditions: with pcna_yeast POL30, P15873
pcna_yeast POL30, P15873, sequence (P15873 whole entry): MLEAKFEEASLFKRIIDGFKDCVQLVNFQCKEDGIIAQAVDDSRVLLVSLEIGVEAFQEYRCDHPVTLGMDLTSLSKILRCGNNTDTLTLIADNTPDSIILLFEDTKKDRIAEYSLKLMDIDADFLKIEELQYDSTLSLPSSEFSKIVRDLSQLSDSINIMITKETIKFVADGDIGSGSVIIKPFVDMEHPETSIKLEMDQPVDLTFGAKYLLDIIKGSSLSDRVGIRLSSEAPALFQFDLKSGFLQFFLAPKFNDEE

| Variant | effect of a mutation on the interaction |
| --- | --- |
| F627A;F628A | decreasing interaction |

From IntAct's records for PubMed 11545742
